According to paper PMC2751797:

Substrate: NC(=O)c1cc(N2CC2)c([N+](=O)[O-])cc1[N+](=O)[O-]
Assay: purified protein
Type: biochemical, Escherichia coli
Details: NADPH 60 μM fixed, 10 mM Tris-HCl pH 7.5, 23 °C

B1: NfsB (His6-NfsB) (Escherichia coli K-12) (protein)
chain: MDIISVALKRHSTKAFDASKKLTPEQAEQIKTLLQYSPSSTNSQPWHFIVASTEEGKARVAKSAAGNYVFNERKMLDASHVVVFCAKTAMDDVWLKLVVDQEDADGRFATPEAKAANDKGRKFFADMHRKDLHDDAEWMAKQVYLNVGNFLLGVAALGLDAVPIEGFDAAILDAEFGLKEKGYTSLVVVPVGHHSVEDFNATLPKSRLPQNITLTEV
For B1, which Km is on record?
The Km was 79 ± 22 µM.

And the kcat/Km?
The kcat/Km was 26000 M⁻¹ s⁻¹.
